According to patent EP4755916A1 (Jiangsu Hengrui Pharmaceuticals Co., Ltd., dated 2026):
Substitutions are numbered along the chain they refer to. Numbers in names are those of the source. Read-outs that look alike come from different tables or passages of the source. One block for each binder: values may come before it.

Legend:
[1] = molecular target: T1, human BTN3A1 recombinant protein with his tag (h-BTN3A1-his) (human, UniProt O00481 30-254); assay: ELISA, plate coated with h-BTN3A1-his, antibody titrated
T1 construct: range 30-254; Bought from Kactus; also called human BTN3A1 antigen protein (Kactus Biosystems, BTN-HM1A1); not shown: his tag
T1 sequence (O00481 30-254 limits assumed): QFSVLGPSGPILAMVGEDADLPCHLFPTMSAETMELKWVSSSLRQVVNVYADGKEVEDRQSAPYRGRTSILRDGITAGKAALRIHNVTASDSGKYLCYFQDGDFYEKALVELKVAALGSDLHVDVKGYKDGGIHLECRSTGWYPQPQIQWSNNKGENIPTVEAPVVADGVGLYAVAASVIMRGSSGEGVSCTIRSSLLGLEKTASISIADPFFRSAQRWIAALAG

[2] = molecular target: T2, human BTN3A1 expressed on HEK293 cells (human, UniProt O00481 30-513); assay: flow cytometry, HEK293 cells overexpressing human BTN3A1
T2 construct: whole, on cells; also called BTN3A1-expressing HEK293 cells; human BTN3A1-overexpressing cells
T2 sequence (O00481 30-513): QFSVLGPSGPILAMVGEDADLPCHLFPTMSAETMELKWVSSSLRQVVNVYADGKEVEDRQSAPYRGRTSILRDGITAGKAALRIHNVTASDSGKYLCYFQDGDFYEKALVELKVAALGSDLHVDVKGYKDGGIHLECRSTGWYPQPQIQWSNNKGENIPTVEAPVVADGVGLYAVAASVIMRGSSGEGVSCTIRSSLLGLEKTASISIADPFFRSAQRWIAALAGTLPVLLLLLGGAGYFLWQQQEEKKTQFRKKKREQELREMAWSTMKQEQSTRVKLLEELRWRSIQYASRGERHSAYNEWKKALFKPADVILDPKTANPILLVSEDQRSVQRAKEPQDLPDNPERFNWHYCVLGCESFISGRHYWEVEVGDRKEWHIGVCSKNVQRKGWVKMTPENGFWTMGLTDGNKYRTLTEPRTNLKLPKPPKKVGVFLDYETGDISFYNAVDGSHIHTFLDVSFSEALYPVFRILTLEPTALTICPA

[3] = molecular target: T2, human BTN3A1 expressed on HEK293 cells; assay: flow cytometry, HEK293 cells (endogenous BTN3A knocked out) overexpressing human BTN3A1
[4] = molecular target: T1, human BTN3A1 recombinant protein with …; assay: SPR Biacore 8K, antibody captured on Protein A chip, BTN3A1 as analyte, 1:1 Langmuir fit
[5] = molecular target: T3, human BTN3A2 overexpressed on HEK293 cells (human, UniProt P78410 30-334); assay: flow cytometry, HEK293 cells (endogenous BTN3A knocked out) overexpressing human BTN3A2
T3 construct: whole, on cells; HEK293 cells with endogenous BTN3A knocked out; also called human BTN3A2-overexpressing cells
T3 sequence (P78410 30-334): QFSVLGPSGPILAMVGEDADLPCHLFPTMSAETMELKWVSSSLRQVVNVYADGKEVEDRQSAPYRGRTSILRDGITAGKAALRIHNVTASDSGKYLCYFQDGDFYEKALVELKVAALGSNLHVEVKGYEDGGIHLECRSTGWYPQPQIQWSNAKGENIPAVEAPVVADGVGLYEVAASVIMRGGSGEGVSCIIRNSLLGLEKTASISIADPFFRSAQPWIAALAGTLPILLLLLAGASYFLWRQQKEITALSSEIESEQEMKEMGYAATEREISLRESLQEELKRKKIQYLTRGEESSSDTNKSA

[6] = molecular target: T2, human BTN3A1 expressed on HEK293 cells; assay: flow cytometry, HEK293 cells (endogenous BTN3A knocked out) overexpressing human BTN3A1; remark: listed apart in the source
[7] = molecular target: T1, human BTN3A1 recombinant protein with …; assay: SPR Biacore 8K, antibody captured on Protein A chip, BTN3A1 as analyte, 1:1 Langmuir fit; remark: listed apart in the source
[8] = molecular target: T4, human BTN3A3 overexpressed on HEK293 cells (human, UniProt O00478 30-584); assay: flow cytometry, HEK293 cells (endogenous BTN3A knocked out) overexpressing human BTN3A3
T4 construct: whole, on cells; HEK293 cells with endogenous BTN3A knocked out; also called human BTN3A3-overexpressing cells
T4 sequence (O00478 30-584): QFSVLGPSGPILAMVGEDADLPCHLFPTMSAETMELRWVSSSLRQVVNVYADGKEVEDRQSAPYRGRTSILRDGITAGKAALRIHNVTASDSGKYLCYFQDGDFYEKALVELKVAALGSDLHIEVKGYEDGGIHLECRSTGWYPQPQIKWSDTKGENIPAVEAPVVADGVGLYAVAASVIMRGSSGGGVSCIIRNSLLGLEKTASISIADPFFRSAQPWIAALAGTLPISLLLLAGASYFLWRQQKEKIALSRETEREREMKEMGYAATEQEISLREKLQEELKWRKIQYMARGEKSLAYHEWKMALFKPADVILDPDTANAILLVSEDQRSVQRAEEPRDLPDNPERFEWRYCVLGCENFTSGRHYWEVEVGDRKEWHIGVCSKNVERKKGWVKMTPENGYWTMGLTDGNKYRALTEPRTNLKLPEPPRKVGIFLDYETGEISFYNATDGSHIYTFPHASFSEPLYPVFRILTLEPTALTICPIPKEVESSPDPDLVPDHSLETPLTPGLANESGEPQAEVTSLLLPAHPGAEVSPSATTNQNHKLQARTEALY

- EC50 [1]: 0.0196 nM
- EC50 [2]: 11.7 nM
- Max FACS mean fluorescence intensity (MFI) [2]: 95800 MFI
- EC50 [3]: 8.2 nM
- Kd [4]: 0.174 nM
- koff [4]: 0.000172 s⁻¹
- kon [4]: 985000 M⁻¹ s⁻¹
B1: 20A3 (a human-rabbit chimeric antibody, parent) (antibody, human IgG1, kappa, V domains shown)
VH: QSVEESGGRLVTPGTPLTLTCTASGFTINNYYMNWVRQAPGKGLEWIGIIYGSDNTYYASWAKGRFTISKTSTTVDLIMTSPTTEDTATYFCVRNLDYSSAYFHIWGPGTLVTVSS
VL: QVLTQTPSPVSAAVGGTVSISCQASQSVYNNNRLAWYQQKPGQPPNLLIYEASKLASGVPSRFKGSGSGTQFTLIISEVQCEDAATYYCQGYYSGFIYPFGGGTEVVVKR
notes: Rabbit variable regions on the human IgG1 constant region with L234F/L235E/P331S (Eu numbering) and human Ckappa

- EC50 [2]: 19.8 nM
- Max FACS mean fluorescence intensity (MFI) [2]: 89700 MFI
B2: 17G4-H5L3 (antibody, human IgG1, kappa, V domains shown)
VH: EQQLVESGGGLVQPGGSLRLSCAASGFSLNDYYITWVRQAPGKGLEWIGVIYGSSNTVYASWAKGRFTISKTSTMVYLQMNSLRAEDTAVYFCARGYLASSADIWGQGTLVTVSS
VL: DQQLTQSPSSLSASVGDRVTITCQSSQSVYNNNRLAWYQQKPGKPPKLLIYDASTLASGVPSRFSGSGSGTDFTLTISSLQPEDVATYYCQTYYSGYIWAFGGGTKVEIKR
notes: Humanized; human IgG1 constant region with L234F/L235E/P331S and human Ckappa; also called 17G4's humanized antibody

- EC50 [5]: 6.76 nM
- EC50 [6]: 2.98 nM
- EC50 [2]: 10.2 nM
- Max FACS mean fluorescence intensity (MFI) [2]: 91200 MFI
- Kd [7]: 0.174 nM
- koff [7]: 0.000172 s⁻¹
- kon [7]: 985000 M⁻¹ s⁻¹
- EC50 [8]: 5.12 nM
B3: 20A3-H2L2 (antibody, human IgG1, kappa, V domains shown)
VH: EVQLVESGGGLVQPGGSLRLSCAASGFTINNYYMNWVRQAPGKGLEWVSIIYGSDNTYYASWAKGRFTISKDNSKNTVYLQMNSLRAEDTAVYYCVRNLDYSSAYFHIWGQGTLVTVSS
VL: B2 VL with Q2I, S25A, D52E, T55K, T92G, Y97F, W99Y, A100P
notes: Humanized; human IgG1 constant region with L234F/L235E/P331S and human Ckappa; also called 20A3's humanized antibody

- EC50 [1]: 0.0228 nM
- EC50 [2]: 17.4 nM
- Max FACS mean fluorescence intensity (MFI) [2]: 98000 MFI
- EC50 [3]: 15.4 nM
- Kd [4]: 0.228 nM
- koff [4]: 0.000182 s⁻¹
- kon [4]: 800000 M⁻¹ s⁻¹
B4: 17G4 (a human-rabbit chimeric antibody, parent) (antibody, human IgG1, kappa, V domains shown)
VH: QSLEESGGRLVTPGTPLTLTCTASGFSLNDYYITWVRQAPGKGLEWIGVIYGSSNTVYASWAKGRFTISKTSTMVDLRITSPTTEDTATYFCARGYLASSADIWGPGTLVTVSL
VL: QVLTQTPSPVSAAVGGTVTINCQSSQSVYNNNRLAWYQQKPGQPPKLLIYDASTLASGVPSRFKGSGSGTDFTLTISDLECADAATYYCQTYYSGYIWAFGGGTEVVVKR
notes: as for B1
